In PMC10787763, “Two-substrate enzyme engineering using small libraries that combine the substrate preferences from two different variant lineages” (Scientific Reports, 2024):

Substrate: O=Cc1cccc(C(=O)O)c1
Assay: initial-rate kinetics by RP-HPLC, Michaelis-Menten fit
Assay type: biochemical, Escherichia coli
Details: TK-3, acceptor substrate varied, 50 mM pyruvate as donor, 2.4 mM ThDP, 9 mM MgCl2, 50 mM Tris-HCl pH 7.0, 21 °C, error is SEM
Text: initial-rate kinetics by RP-HPLC, Michaelis-Menten fit on E. coli transketolase (TK), 6M variant scaffold

B1: E. coli transketolase (TK), 6M variant scaffold (Escherichia coli K-12; A282P/D469T/G506A/H100L/H192P/I365L/S385F) (protein)
chain: MSSRKELANAIRALSMDAVQKAKSGHPGAPMGMADIAEVLWRDFLKHNPQNPSWADRDRFVLSNGHGSMLIYSLLHLTGYDLPMEELKNFRQLHSKTPGLPEVGYTAGVETTTGPLGQGIANAVGMAIAEKTLAAQFNRPGHDIVDHYTYAFMGDGCMMEGISHEVCSLAGTLKLGKLIAFYDDNGISIDGPVEGWFTDDTAMRFEAYGWHVIRDIDGHDAASIKRAVEEARAVTDKPSLLMCKTIIGFGSPNKAGTHDSHGAPLGDAEIALTREQLGWKYPPFEIPSEIYAQWDAKEAGQAKESAWNEKFAAYAKAYPQEAAEFTRRMKGEMPSDFDAKAKEFIAKLQANPAKIASRKASQNALEAFGPLLPEFLGGSADLAPFNLTLWSGSKAINEDAAGNYIHYGVREFGMTAIANGISLHGGFLPYTSTFLMFVEYARNAVRMAALMKQRQVMVYTHDSIGLGETGPTHQPVEQVASLRVTPNMSTWRPCDQVESAVAWKYAVERQDGPTALILSRQNLAQQERTEEQLANIARGGYVLKDCAGQPELIFIATGSEVELAVAAYEKLTAEGVKARVVSMPSTDAFDKQDAAYRESVLPKAVTARVAVEAGIADYWYKYVGLNGAIVGMTTFGESAPAELLFEEFGFTVDNVVAKAKELL
notes: full-length, C-terminal His6 tag, expressed in E. coli from lab plasmid (pQR791 / pQR729), Ni-NTA purified; holo-TK with ThDP and Mg2+; non-natural residue by amber suppression in TK-5C
In the case of B1, the Km is reported as 82 (11) mM, the Vmax is reported as 3500 µM/min and the kcat is reported as 43 s⁻¹.
